The record followed here is article PMC9935901 (2023).

For orientation: Kd means a measure of binding affinity in units of concentration. Read a high Kd as lower affinity.

The target of assay [1] is Cell-penetrating FaP3 (CP-FaP3). In words: SPR. (SPR reads the build-up and loss of mass on a sensor chip optically.)
Assay [2] deals with Cell-penetrating FaP2 (CP-FaP2). The assay is described as follows: SPR.

B1: β-catenin (surface plasmon resonance) (natural protein)
chain: MATQADLMELDMAMEPDRKAAVSHWQQQSYLDSGIHSGATTTAPSLSGKGNPEEEDVDTSQVLYEWEQGFSQSFTQEQVADIDGQYAMTRAQRVRAAMFPETLDEGMQIPSTQFDAAHPTNVQRLAEPSQMLKHAVVNLINYQDDAELATRAIPELTKLLNDEDQVVVNKAAVMVHQLSKKEASRHAIMRSPQMVSAIVRTMQNTNDVETARCTAGTLHNLSHHREGLLAIFKSGGIPALVKMLGSPVDSVLFYAITTLHNLLLHQEGAKMAVRLAGGLQKMVALLNKTNVKFLAITTDCLQILAYGNQESKLIILASGGPQALVNIMRTYTYEKLLWTTSRVLKVLSVCSSNKPAIVEAGGMQALGLHLTDPSQRLVQNCLWTLRNLSDAATKQEGMEGLLGTLVQLLGSDDINVVTCAAGILSNLTCNNYKNKMMVCQVGGIEALVRTVLRAGDREDITEPAICALRHLTSRHQEAEMAQNAVRLHYGLPVVVKLLHPPSHWPLIKATVGLIRNLALCPANHAPLREQGAIPRLVQLLVRAHQDTQRRTSMGGTQQQFVEGVRMEEIVEGCTGALHILARDVHNRIVIRGLNTIPLFVQLLYSPIENIQRVAAGVLCELAQDKEAAEAIEAEGATAPLTELLHSRNEGVATYAAAVLFRMSEDKPQDYKKRLSVELTSSLFRTEPMAWNETADLGLDIGAQGEPLGYRQDDPSYRSFHSGGYGQDALGMDPMMEHEMGGHHPGADYPVDGLPDLGHAQDLMDGLPPGDSNQLAWFDTDL
As for B1, the figures for the Kd in assay [1] and in assay [2] were 61.9 nM and 194 nM, respectively.
